The target in this test is monoclonal antibody mAB 198. The test can be described thus: peptide microarray, fluorescence, cyclic peptide.

Where no end group is shown, it is not given here.

In the case of LRWNPADYPGI (also: cyclic peptide, mode of cyclisation not given here), the relative signal [%] amounted to 8.9%.

DVRLRWNPSDY (also: cyclic peptide, mode of cyclisation not given here) returned a relative signal [%] of 10.5%.

In turn, TLRWNPADY (also: cyclic peptide, mode of cyclisation not given here) returned a relative signal [%] of 9.9%.

In turn, LRGNPAD (also: cyclic peptide, mode of cyclisation not given here) [LRGNPAD, cyclic mimotope] displayed a relative signal [%] of 9.1%.

Regarding RWNPADF (also: cyclic peptide, ring type and places not given here) [RWNPADF, cyclic mimotope], the relative signal [%] amounted to 9.1%.

Turning to RLRWNPADYGS (also: cyclic peptide, ring type and places not given here), the relative signal [%] worked out at 9.7%.

As for GSLRWNPADYQ (also: cyclic peptide, mode of cyclisation not given here), the relative signal [%] came out at 9.7%.

RLRQNPADY (not fully specified; cyclic peptide) [RLRONPADY, cyclic mimotope] showed a relative signal [%] of 10.6%.

In the case of GSLRWNPADYN (also: cyclic peptide, mode of cyclisation not given here), the relative signal [%] came out at 10%.

Molecule RLRWNPADYHG (also: cyclic peptide, ring type and places not given here) yielded a relative signal [%] of 10.1%.

Take WNPDDYR (also: cyclic peptide, mode of cyclisation not given here) [WNPDDYR, cyclic mimotope]: the relative signal [%] was found to be 9%.

The molecule LRWNPADYR (also: cyclic peptide, mode of cyclisation not given here) yielded a relative signal [%] of 10.3%.

Regarding LRPNPADYG (also: cyclic peptide, mode of cyclisation not given here), the relative signal [%] was 10%.

VRLRWNPADYS (also: cyclic peptide, mode of cyclisation not given here) displayed a relative signal [%] of 10.5%.

On to SLYWNPADY (also: cyclic peptide, mode of cyclisation not given here), for which the relative signal [%] was determined as 9.4%.

On to VRLRGNPAD (also: cyclic peptide, mode of cyclisation not given here), for which the relative signal [%] was 9.9%.

RLLWNPADY (also: cyclic peptide, ring type and places not given here) returned a relative signal [%] of 9.7%.

Molecule RWNPADR (also: cyclic peptide, ring type and places not given here) [RWNPADR, cyclic mimotope] showed a relative signal [%] of 11%.

As to DVRLRYNPADY (also: cyclic peptide, mode of cyclisation not given here), the relative signal [%] was determined as 10.5%.

Take GGSLRWNPADR (also: cyclic peptide, mode of cyclisation not given here): the relative signal [%] was 10.3%.

As to VRLRINPADYG (also: cyclic peptide, mode of cyclisation not given here), the relative signal [%] turned out to be 10%.

Take DVRLRQNPADY (not fully specified; cyclic peptide) [DVRLRONPADY, cyclic mimotope]: the relative signal [%] was found to be 8.8%.

The molecule RLRWNPADYGP (also: cyclic peptide, ring type and places not given here) registered a relative signal [%] of 10%.

As for LRWNPADYGGF (also: cyclic peptide, mode of cyclisation not given here), the relative signal [%] was found to be 10.3%.

QLRWNPADY (also: cyclic peptide, ring type and places not given here) returned a relative signal [%] of 10.7%.

For RLHWNPADY (also: cyclic peptide, ring type and places not given here), the relative signal [%] stood at 10.8%.

RSRWNPADY (also: cyclic peptide, ring type and places not given here) had a relative signal [%] of 9.8%.

Take VRLRLNPADYG (also: cyclic peptide, mode of cyclisation not given here): the relative signal [%] was 9.7%.

RLRPNPADY (also: cyclic peptide, ring type and places not given here) gave a relative signal [%] of 9.8%.

Consider RLRGNPADYGG (also: cyclic peptide, ring type and places not given here), for which the relative signal [%] is 9%.

With GSLRWNPADYD (also: cyclic peptide, mode of cyclisation not given here), the relative signal [%] amounted to 10.2%.

In the case of GSLRFNPADYG (also: cyclic peptide, mode of cyclisation not given here), the relative signal [%] was found to be 10.4%.

The record behind these values is patent US20230381328A1, “COMPOUND FOR THE PREVENTION OR TREATMENT OF MYASTHENIA GRAVIS” (ABLEVIA BIOTECH GMBH, priority 2020, published 2023).
